The text below walks through data of patent US9616101B2, “Differentiation marker and differentiation control of eye cell” (Kyoto Prefectural Public University Corporation, priority 2012, dated 2017).

Test [1] concerns corneal endothelial cell of rabbit sclerocorneal section. The experiment in a line: Organ culture of rabbit sclerocorneal section with R-spondin 1: Ki67-positive cell rate. The settings on record: control about 1.0%. Format: cell-based, white rabbit. On the procedure: Eyeballs of white rabbit (Nacalai) euthanized for another object were purchased, and a sclerocorneal section was prepared. The sclerocorneal section was cultured in an incubator at 37° C. for 1 week in DMEM (INVITROGEN, catalog No.: 12320) and 10% fetal bovine serum (FBS) (BIOWEST, catalog No.: 51820-500). […] A corneal endothelial cell was subjected to nuclear staining with DAPI, and the Ki67-positive cell rate was calculated. In addition, a corneal endothelial cell was immunostained with ZO-1, and the cell density was calculated.

Test [2] deals with cytosol β-catenin and p-LRP6. As to the kind of experiment: Western blotting of Wnt/β-catenin-associated molecules in human CEC with or without RSPO1. Format: cell-based. An excerpt:
For Western blotting, the following rabbit polyclonal antibodies: anti-LRP6, p-LRP6 (Cell Signaling Technology, Inc., Beverly, Mass.), as well as the following mouse monoclonal antibodies: β-catenin (BD Biosciences) and β-actin (Sigma-Aldrich, St. Louis, Mo.); were used. As a secondary antibody, HRP-labeled anti-rabbit or mouse IgG (GE Healthcare, Piscataway, N.J.) was used. Recombinant human SHH, purmorphamine, cyclopamine and RSpos were purchased from R&D Systems Inc. (Minneapolis, Minn.).
Cultured human CEC was washed with PBS, and then, rinsed with a lysis buffer containing PBS, 1% TRITON™ X-100, 0.5 M EDTA, phosphatase inhibitor cocktail 2 (Sigma-Aldrich) and […] (Roche). Detection of activated β-catenin (non-membrane-bound type) was implemented according to the protocol previously reported [Aghib D F et al., Exp Cell Res., 1995; 218: 359-369]. In brief, a cell lysate treated with Con A Sepharose™ 4B (GE Healthcare) was incubated at 4° C. for 1 hour. After centrifugation at 4° C. for 10 minutes, the supernatant was transferred into a new tube, Con A Sepharose™ was added to each tube, and the resultant was incubated at 4° C. for 1 hour. Finally, after simple centrifugation, the supernatant was transferred into a new tube, and the protein concentration was determined.
Then, the protein was separated by SDS-PAGE, and transferred to a PVDF membrane. […]

For test [3], the system named is human corneal endothelial cell in the confluent state. As to the kind of experiment: Cell density of confluent human corneal endothelial cells cultured with R-spondin 1. The settings on record: R-spondin 1 10 ng/ml, 566.8 at addition. Format: cell-based. The text has this:
• (Source and culture method): As a human corneal endothelial cell, a corneal endothelial cell was mechanically peeled together with a basal membrane from a cornea for research, purchased from Seattle Eye Bank, and the corneal endothelial cell was peeled and recovered from the basal membrane using collagenase (ROCHE catalog No.: 10 103 586 001), and was subjected to primary culturing. As a medium, for human, Opti-MEM I Reduced-Serum Medium, Liquid (INVITROGEN catalog No.: 31985-070), 8% fetal bovine serum (FES) (BIOWEST, catalog No.: S1820-500), […] CaCl2.2H2O (SIGMA catalog No.: C7902-500G), 0.08% chondroitin sulfate (SIGMA catalog No.: C9819-5G), 20 μg/ml ascorbic acid (SIGMA catalog No.: A4544-25G), 50 μg/ml gentamicin (INVITROGEN catalog No.: 15710-064) and 5 ng/ml EGF (INVITROGEN catalog No.: PHG0311), acclimated for a 3T3 feeder cell, were used.
After subculturing, at the time point where cells reached confluent and were cultured for 2 weeks or longer, and no clear change in the corneal endothelium density was recognized, R-spondin 1 was added into a medium in a concentration of 10 ng/ml, and culture was continued. Observation of cell morphology was performed with a phase contrast microscope, and the cell density was calculated.

Test [4] has as its system cultured monkey corneal endothelial cell. The experiment in a line: Detection of proliferating cells with Click-iT EdU Imaging Kit after R-spondin 1 addition. It counts as cell-based, cynomolgus monkey. As to conditions: 10 ng/ml or 50 ng/ml R-spondin 1; almost confluent cells; 48 hours after addition. On the procedure:
After addition of an R-spondin 1 protein to a cultured monkey corneal endothelial cell and culturing for 48 hours, a cell during proliferation was detected using the Click-iT Edu imaging Kit, and the positivity rates of EdU and the cell densities of a control cell and a cell to which R-spondin 1 was added were compared.
EdU (5-ethynyl-2′-deoxyuridine) is a modified nucleic acid taken into DNA at a DNA synthesis phase by a chemical reaction, and is widely used in place of a conventional BrdU for identifying a DNA synthesis phase cell. By measuring the positivity rate of EdU, the proliferative cell rate in a cultured cell is found.
A cultured monkey corneal endothelial cell (Lot. 20111222-4 P2) was treated with 0.05% trypsin at 37° C. for 10 minutes, peeled from a T-25 flask, and suspended in a culture medium (10% FBS+bFGF/DMEM). The number of cells was counted, and the suspension was adjusted with a culture medium to 3×10^4 cells/300 μl. Cells were seeded on a Lab-TekII chamber Slide (8 well) coated with FNS, in 300 μl/well.
At 7 days after cell seeding, a medium was exchanged with a medium containing R-spondin 1 (0, 10, 50 ng/ml) in the state where cells were almost confluent, and at 24 hours after addition of R-spondin 1, Click-iT EdU was added so that the final concentration was 10 μM. […]

“Also recorded” adds a separate entry of the source.

B1: R-spondin 1: Recombinant Human R-spondin 1 (R&D Cat. 4645-RS); ligand of GPR49/LGR5 (protein, listed as Homo sapiens)
chain: MRLGLCVVALVLSWTHLTISSRGIKGKRQRRISAEGSQACAKGCELCSEVNGCLKCSPKLFILLERNDIRQVGVCLPSCPPGYFDARNPDMNKCIKCKIEHCEACFSHNFCTKCKEGLYLHKGRCYPACPEGSSAANGTMECSSPAQCEMSEWSPWGPCSKKQQLCGFRRGSEERTRRVLHAPVGDHAACSDTKETRRCTVRRVPCPEGQKRRKGGQGRRENANRNLARKESKEAGAGSRRRKGQQQQQQQGTVGPLTSAGPA
For the molecule B1, the “rate of a Ki67-positive cell” value in test [1] (1 ng/ml R-spondin 1, 1 week) is on record as 4.49%; in test [1] (10 ng/ml R-spondin 1, 1 week) it was 10.58%; in test [1] (100 ng/ml R-spondin 1, 1 week), 7.94%. Besides, the “protein level of cytosol β-catenin and p-LRP6” value in test [2] (cell transfected with GPR49/LGR5 and treated with RSPO1 (50 ng/ml), as compared with NT cell) is on record as “clearly decreased”; in test [2] (cells transfected with NT and GPR49/LGR5, treated with RSPO1 (50 ng/ml), as compared with cell group not treated with RSPO1) it was “decreased”. Further, the “corneal endothelial cell density” value in test [3] (7th day) is “about 695 cells/mm^2”; in test [3] (after 14 days), “about 875 cells/mm^2”; in test [3] (after 21 days, control without R-spondin 1 535.4), 995.8 cells/mm^2. Also, the “EdU-positive cell/DAPI as compared with a control” value in test [4] is reported as “increased two times; also recorded: increased twice”.
